The chains are these.
B1: NRC3_wobSeed116_DR4_C15G_o1 (dsDNA)
DNA 1: GCAGAATGAGGTTAGCAAAGATCAGGGAAACGCTTGGCGATTGACAGCGTAGAATGAAGG
DNA 2: CCTTCATTCTACGCTGTCAATCGCCAAGCGTTTCCCTGATCTTTGCTAACCTCATTCTGC
B2: NRC3_random_hg19_477_o1 (dsDNA)
DNA 1: GCAACAAACTTCCTTGCTCTAGTTCATCAGCAATGAGCGATTGACAGCGTAGAATGAAGG
DNA 2: CCTTCATTCTACGCTGTCAATCGCTCATTGCTGATGAACTAGAGCAAGGAAGTTTGTTGC
B3: NRC3_wobSeed136_DR5_A9C_o1 (dsDNA)
DNA 1: GCTAGCCTCGGTCATTCAGGGGCCAGTATAGAAAGCGCGATTGACAGCGTAGAATGAAGG
DNA 2: CCTTCATTCTACGCTGTCAATCGCGCTTTCTATACTGGCCCCTGAATGACCGAGGCTAGC
B4: NRC3_wobSeed53_DR2_C13A_o1 (dsDNA)
DNA 1: GCCCTTACGGGTAACGAGGTTATAGCACGACGAGCGGCGATTGACAGCGTAGAATGAAGG
DNA 2: CCTTCATTCTACGCTGTCAATCGCCGCTCGTCGTGCTATAACCTCGTTACCCGTAAGGGC
B5: NRC3_wobSeed27_DR1_C20G_o1 (dsDNA)
DNA 1: GCACTCGGAGGACAAAGGTGAGAGCTACGCCAGTGAGCGATTGACAGCGTAGAATGAAGG
DNA 2: CCTTCATTCTACGCTGTCAATCGCTCACTGGCGTAGCTCTCACCTTTGTCCTCCGAGTGC
B6: NRC3_wobSeed27_DR1_C20A_o1 (dsDNA)
DNA 1: B5 DNA 1 with G20A
DNA 2: B5 DNA 2 with C41T
B7: NRC3_wobSeed100_DR4_C23G_o1 (dsDNA)
DNA 1: GCCCTACTGGGCCACGAAAGGTGATTGATTCAGTGAGCGATTGACAGCGTAGAATGAAGG
DNA 2: CCTTCATTCTACGCTGTCAATCGCTCACTGAATCAATCACCTTTCGTGGCCCAGTAGGGC
B8: NRC3_wobSeed113_DR4_G20A_o1 (dsDNA)
DNA 1: GCATATGTAGGTTAGCTGGAGTCATTCAGACTAGGCGCGATTGACAGCGTAGAATGAAGG
DNA 2: CCTTCATTCTACGCTGTCAATCGCGCCTAGTCTGAATGACTCCAGCTAACCTACATATGC
B9: NRC3_wobSeed133_DR5_C13A_o1 (dsDNA)
DNA 1: GCCGTCCAAGGTAAATGCTAGGTCAGTGAAAGCATTGCGATTGACAGCGTAGAATGAAGG
DNA 2: CCTTCATTCTACGCTGTCAATCGCAATGCTTTCACTGACCTAGCATTTACCTTGGACGGC
B10: NRC3_wobSeed133_DR5_T12G_o1 (dsDNA)
DNA 1: B9 DNA 1 with T12G, A13C
DNA 2: B9 DNA 2 with T48G, A49C
B11: NRC3_wobSeed114_DR4_C13G_o1 (dsDNA)
DNA 1: GCAATACAGGGTGATCGTAGGCCAGAGTACGCACAGGCGATTGACAGCGTAGAATGAAGG
DNA 2: CCTTCATTCTACGCTGTCAATCGCCTGTGCGTACTCTGGCCTACGATCACCCTGTATTGC
B12: NRC3_wobSeed50_DR2_G18A_o1 (dsDNA)
DNA 1: GCCCTAGTTGGTCAGGAAGTCACACACCGGATATGAGCGATTGACAGCGTAGAATGAAGG
DNA 2: CCTTCATTCTACGCTGTCAATCGCTCATATCCGGTGTGTGACTTCCTGACCAACTAGGGC
B13: NRC3_wobSeed21_DR0_C13A_o1 (dsDNA)
DNA 1: GCCGTCAAAGTTAAAGGTAACGTAACAGAAAGCAGCGCGATTGACAGCGTAGAATGAAGG
DNA 2: CCTTCATTCTACGCTGTCAATCGCGCTGCTTTCTGTTACGTTACCTTTAACTTTGACGGC

Positions count from the first letter of the chain named.

This note sets out measurements from article PMC6555819, “Comprehensive study of nuclear receptor DNA binding provides a revised framework for understanding receptor specificity”.

Chain of LXRb:RXRa (P55055 whole entry, chain 1 of 2): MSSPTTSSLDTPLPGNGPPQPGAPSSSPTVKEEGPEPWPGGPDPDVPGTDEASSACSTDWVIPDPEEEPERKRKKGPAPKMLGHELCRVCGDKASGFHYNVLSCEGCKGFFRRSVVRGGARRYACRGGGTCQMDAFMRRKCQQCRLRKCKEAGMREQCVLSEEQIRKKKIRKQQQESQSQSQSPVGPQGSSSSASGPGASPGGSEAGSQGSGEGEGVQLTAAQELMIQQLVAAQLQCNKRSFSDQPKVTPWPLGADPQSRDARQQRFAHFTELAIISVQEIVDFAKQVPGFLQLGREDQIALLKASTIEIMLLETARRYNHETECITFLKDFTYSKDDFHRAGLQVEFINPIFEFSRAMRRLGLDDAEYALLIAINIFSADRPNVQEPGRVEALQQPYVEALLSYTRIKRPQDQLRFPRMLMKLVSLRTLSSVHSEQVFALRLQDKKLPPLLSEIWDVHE
Chain of LXRb:RXRa (P19793 whole entry, chain 2 of 2): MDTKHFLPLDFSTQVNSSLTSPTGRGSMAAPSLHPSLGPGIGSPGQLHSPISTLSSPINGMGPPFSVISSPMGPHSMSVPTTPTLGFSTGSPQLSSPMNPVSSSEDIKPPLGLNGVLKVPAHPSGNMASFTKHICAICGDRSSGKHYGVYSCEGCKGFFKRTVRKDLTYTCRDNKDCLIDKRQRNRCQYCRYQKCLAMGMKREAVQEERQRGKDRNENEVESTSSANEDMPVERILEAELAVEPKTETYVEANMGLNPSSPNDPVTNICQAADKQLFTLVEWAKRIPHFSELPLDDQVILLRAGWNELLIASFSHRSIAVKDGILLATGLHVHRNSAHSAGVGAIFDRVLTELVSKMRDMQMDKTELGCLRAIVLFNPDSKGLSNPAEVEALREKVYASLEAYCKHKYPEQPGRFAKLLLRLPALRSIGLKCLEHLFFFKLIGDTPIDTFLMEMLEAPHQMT

The series deals with LXRb:RXRa (Homo sapiens, UniProt P55055;P19793 full;full). As to the kind of experiment: no ligand; PBM; 270 nM : 90 nM RXRa; PBS pH 7.4, 2% milk, 0.02% Triton X-100, 1 mM DTT, BSA, 0.4 mg/ml salmon testes DNA. As to conditions: tags: His kept;His cleaved; copies: 1;1; label: surface-attached array probe. The procedure, abridged:
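Ligand-free nuclear receptor dimers were bound for 1 h to custom Agilent 4×180K protein-binding microarrays. Detection used antibodies against each partner (one per run). Binding z-scores rest on regression-normalized fluorescence, with random background probes as the reference.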
As for B1, the binding signal is 0.41 PBM z-score against 500 random probes.

Turning to B2, the binding signal was 0.49 PBM z-score against 500 random probes.

B3: the binding signal is 0.42 PBM z-score against 500 random probes.

Take B4: the binding signal is 0.41 PBM z-score against 500 random probes.

For the molecule B5, the binding signal is 0.32 PBM z-score against 500 random probes.

On to B6, for which the binding signal is -0.49 PBM z-score against 500 random probes.

Take B7: the binding signal is -0.2 PBM z-score against 500 random probes.

B8: the binding signal is 0.16 PBM z-score against 500 random probes.

As for B9, the binding signal was 0.46 PBM z-score against 500 random probes.

Turning to B10, the binding signal is 0.44 PBM z-score against 500 random probes.

With B11, the binding signal was 0.1 PBM z-score against 500 random probes.

With B12, the binding signal was 0.38 PBM z-score against 500 random probes.

As to B13, the binding signal is 0.26 PBM z-score against 500 random probes.
